Experimental data as given in patent US20250368978A1, “SQUALENE HOPENE CYCLASE VARIANTS FOR PRODUCING SCLAREOLIDE” (INTERNATIONAL FLAVORS & FRAGRANCES INC., priority 2022, published 2025).

experiment: SHC variant screening reactions: conversion of HFA to sclareolide by freeze-dried whole cells, GC analysis; format: biochemical, Gluconobacter morbifer; conditions: 20 mg/mL HFA, 50% enzyme loading; relative to initial mutant
Method: SHC Variant Enzyme Expression. Wild-type and the GmSHC variants of Table 5 were individually cloned into pET28a(+). These DNA constructs were transformed into Lemo21 (DE3) E. coli and plated onto agar plates containing Kanamycin. These were incubated overnight at 37° C. A single bacterial colony was picked and used to inoculate 10 mL LB+Kanamycin in a 50 mL falcon tube. This primary culture was incubated overnight at 37° C. with agitation. These cultures (10 mL) were used to inoculate 1L LB+Kanamycin in a shake flask, which was subsequently incubated at 37° C. at 180 rpm for about 4 hours. Protein expression was then induced with the addition of 0.4 mM IPTG and 0.2 mM L-rhamnose. The incubator temperature was lowered to 25° C. and the cultures further incubated at 180 rpm overnight. The next day, the cultures were centrifuged at 4000 rpm for 10 minutes and the supernatant discarded. Cell pellets were resuspended in 0.1 M Potassium phosphate buffer pH 7.4 and exposed to 1 round of freeze/thawing before lyophilization and then use in the reaction assay.
SHC Variant Screening Reactions. Sodium citrate buffer 0.2 M, pH 5 was prepared and 500 μL of this buffer was added to freeze-dried whole cells of each variant (from 1 L shake flask fermentation of E. coli transformed with desired variant plasmid). The results were obtained with an enzyme loading of 50% (w/w). Subsequently, HFA (20 mg/mL) was added to the buffer/enzyme mix. The reactions were incubated at 25° C. with agitation for 72 hours. To stop the reaction and extract the products, a 2X volume of 3:2, heptane: isopropanol was added to each reaction. These were then incubated at 37° C. for 30 minutes with agitation to mix thoroughly. The reactions were centrifuged for 10 minutes at 4000 rpm to pellet any cellular material. The upper organic layer was then removed and placed in a clean gas chromatography (GC) vial.
GC Analysis Method. A GC analytical method was used to detect each of the starting materials and products used in the screening reactions. Due to the volume of samples generated, a fast method was developed with a run time of only 4.5 minutes.
No metal ions were included in the reaction.
Further analysis was conducted to identify one or more optimal SHC enzymes. In particular, substrate loading was increased to 20 mg/mL and incubation with a reduced enzyme loading (50%).

Molecule | Fold improvements (sclareolide production)
V45L + Q54E + Q178S + V222K + I278S + T326S: GmSHC variant with these substitutions relative to SEQ ID NO: 2 (protein, Gluconobacter morbifer) MSPADISTKSSSFQRLDNMLPEAVSSACDWLIDQQKPDGHWVGPLESNACMEAEWCLALWFLGQEDHPLRPRLAQALLEMQREDGSWGIYVGADHGDINTTVEAYAALRSMGYAADMPIMAKSAAWIQQKGGLRNVRVFTRYWLALIGEWPWDKTPNLPPEIIWLPDNFIFSIYNFASWARATMMPLTILSARRPSRPLLPENRLDGLFPEGRENFDYELPKKGEEDLWGRFFRAADKGLHSLQSFPVRRFVPREAAIRHVIEWIIRHQDADGGWGGSQPPWIYGLMALSVEGYPLHHPVLAKAMDALNDPGWRRDKGDASWIQASNSPVWDTMLAVLALHDAGAEDRYSPQMDKAIGWLLDRQVRVKGDWSIKLPDTEPGGWAFEYANDKYPDTDDTAVALIALAGCRHRPEWRERDIEGAISRGVNWLLAMQSSSGGWGAFDKDNNRSILTKIPFCDFGEALDPPSVDVTAHVLEAFGLLGISRNHPSVQKALAYIRSEQERNGAWFGRWGVNYVYGTGAVLPALAAIGEDMTQPYIVRACDWLMSVQQENGGWGESCASYMDINAVGHGVATASQTAWALIGLLAAKRPKDREAIARGCQFLIERQEDGSWTEEEYTGTGFPGYGVGQAIKLDDPSLPDRLLQGAELSRAFMLRYDLYRQYFPVMALSRARRMMKEDASAAA | 37.3 Fold
V45L + Q54E + V222Q + R249R + I278T + T326S + A683E: GmSHC variant with these substitutions relative to SEQ ID NO: 2 (protein, Gluconobacter morbifer) MSPADISTKSSSFQRLDNMLPEAVSSACDWLIDQQKPDGHWVGPLESNACMEAEWCLALWFLGQEDHPLRPRLAQALLEMQREDGSWGIYVGADHGDINTTVEAYAALRSMGYAADMPIMAKSAAWIQQKGGLRNVRVFTRYWLALIGEWPWDKTPNLPPEIIWLPDNFIFSIYNFAQWARATMMPLTILSARRPSRPLLPENRLDGLFPEGRENFDYELPQKGEEDLWGRFFRAADKGLHSLQSFPVRRFVPREAAIRHVIEWIIRHQDADGGWGGTQPPWIYGLMALSVEGYPLHHPVLAKAMDALNDPGWRRDKGDASWIQASNSPVWDTMLAVLALHDAGAEDRYSPQMDKAIGWLLDRQVRVKGDWSIKLPDTEPGGWAFEYANDKYPDTDDTAVALIALAGCRHRPEWRERDIEGAISRGVNWLLAMQSSSGGWGAFDKDNNRSILTKIPFCDFGEALDPPSVDVTAHVLEAFGLLGISRNHPSVQKALAYIRSEQERNGAWFGRWGVNYVYGTGAVLPALAAIGEDMTQPYIVRACDWLMSVQQENGGWGESCASYMDINAVGHGVATASQTAWALIGLLAAKRPKDREAIARGCQFLIERQEDGSWTEEEYTGTGFPGYGVGQAIKLDDPSLPDRLLQGAELSRAFMLRYDLYRQYFPVMALSRARRMMKEDASEAA | 44.6 Fold
V45L + Q54E + V222R + I278T + T326S + R348R: GmSHC variant with these substitutions relative to SEQ ID NO: 2 (protein, Gluconobacter morbifer) MSPADISTKSSSFQRLDNMLPEAVSSACDWLIDQQKPDGHWVGPLESNACMEAEWCLALWFLGQEDHPLRPRLAQALLEMQREDGSWGIYVGADHGDINTTVEAYAALRSMGYAADMPIMAKSAAWIQQKGGLRNVRVFTRYWLALIGEWPWDKTPNLPPEIIWLPDNFIFSIYNFAQWARATMMPLTILSARRPSRPLLPENRLDGLFPEGRENFDYELPRKGEEDLWGRFFRAADKGLHSLQSFPVRRFVPREAAIRHVIEWIIRHQDADGGWGGTQPPWIYGLMALSVEGYPLHHPVLAKAMDALNDPGWRRDKGDASWIQASNSPVWDTMLAVLALHDAGAEDRYSPQMDKAIGWLLDRQVRVKGDWSIKLPDTEPGGWAFEYANDKYPDTDDTAVALIALAGCRHRPEWRERDIEGAISRGVNWLLAMQSSSGGWGAFDKDNNRSILTKIPFCDFGEALDPPSVDVTAHVLEAFGLLGISRNHPSVQKALAYIRSEQERNGAWFGRWGVNYVYGTGAVLPALAAIGEDMTQPYIVRACDWLMSVQQENGGWGESCASYMDINAVGHGVATASQTAWALIGLLAAKRPKDREAIARGCQFLIERQEDGSWTEEEYTGTGFPGYGVGQAIKLDDPSLPDRLLQGAELSRAFMLRYDLYRQYFPVMALSRARRMMKEDASAAA | 60 Fold
V45L + Q54E + Q178S + V222R + 1278T + T326S: GmSHC variant with these substitutions relative to SEQ ID NO: 2 (protein, Gluconobacter morbifer) MSPADISTKSSSFQRLDNMLPEAVSSACDWLIDQQKPDGHWVGPLESNACMEAEWCLALWFLGQEDHPLRPRLAQALLEMQREDGSWGIYVGADHGDINTTVEAYAALRSMGYAADMPIMAKSAAWIQQKGGLRNVRVFTRYWLALIGEWPWDKTPNLPPEIIWLPDNFIFSIYNFASWARATMMPLTILSARRPSRPLLPENRLDGLFPEGRENFDYELPRKGEEDLWGRFFRAADKGLHSLQSFPVRRFVPREAAIRHVIEWIIRHQDADGGWGGTQPPWIYGLMALSVEGYPLHHPVLAKAMDALNDPGWRRDKGDASWIQASNSPVWDTMLAVLALHDAGAEDRYSPQMDKAIGWLLDRQVRVKGDWSIKLPDTEPGGWAFEYANDKYPDTDDTAVALIALAGCRHRPEWRERDIEGAISRGVNWLLAMQSSSGGWGAFDKDNNRSILTKIPFCDFGEALDPPSVDVTAHVLEAFGLLGISRNHPSVQKALAYIRSEQERNGAWFGRWGVNYVYGTGAVLPALAAIGEDMTQPYIVRACDWLMSVQQENGGWGESCASYMDINAVGHGVATASQTAWALIGLLAAKRPKDREAIARGCQFLIERQEDGSWTEEEYTGTGFPGYGVGQAIKLDDPSLPDRLLQGAELSRAFMLRYDLYRQYFPVMALSRARRMMKEDASAAA | 43.8 Fold
V45L + Q54E + V222Q + Y284W + R249R + 1278T + T326S: GmSHC variant with these substitutions relative to SEQ ID NO: 2 (protein, Gluconobacter morbifer) MSPADISTKSSSFQRLDNMLPEAVSSACDWLIDQQKPDGHWVGPLESNACMEAEWCLALWFLGQEDHPLRPRLAQALLEMQREDGSWGIYVGADHGDINTTVEAYAALRSMGYAADMPIMAKSAAWIQQKGGLRNVRVFTRYWLALIGEWPWDKTPNLPPEIIWLPDNFIFSIYNFAQWARATMMPLTILSARRPSRPLLPENRLDGLFPEGRENFDYELPQKGEEDLWGRFFRAADKGLHSLQSFPVRRFVPREAAIRHVIEWIIRHQDADGGWGGTQPPWIWGLMALSVEGYPLHHPVLAKAMDALNDPGWRRDKGDASWIQASNSPVWDTMLAVLALHDAGAEDRYSPQMDKAIGWLLDRQVRVKGDWSIKLPDTEPGGWAFEYANDKYPDTDDTAVALIALAGCRHRPEWRERDIEGAISRGVNWLLAMQSSSGGWGAFDKDNNRSILTKIPFCDFGEALDPPSVDVTAHVLEAFGLLGISRNHPSVQKALAYIRSEQERNGAWFGRWGVNYVYGTGAVLPALAAIGEDMTQPYIVRACDWLMSVQQENGGWGESCASYMDINAVGHGVATASQTAWALIGLLAAKRPKDREAIARGCQFLIERQEDGSWTEEEYTGTGFPGYGVGQAIKLDDPSLPDRLLQGAELSRAFMLRYDLYRQYFPVMALSRARRMMKEDASAAA | 46.2 Fold

experiment: Effect of single mutations of GmSHC on activity (site saturation mutagenesis / summary of variants); format: biochemical, Gluconobacter morbifer; conditions: single position in GmSHC, SEQ ID NO: 2 numbering
Text: Three different approaches were taken to generate SHC variants: rational mutagenesis (site-directed mutagenesis), semi-rational mutagenesis (via site-saturation library), and random mutagenesis (error prone PCR). Variants were expressed in a heterologous system and screened by GC.
To improve the conversion of HFA to sclareolide, GmSHC was mutated at one or more of the residues at position 45, 54, 178, 184, 222, 278, 284, 326, 348, 574 and 683 of SEQ ID NO: 2. Silent mutations at positions 249, 348, and 574 identified in an error prone library, were also introduced in the GmSHC of SEQ ID NO: 2.

Molecule | effect of mutation on activity
Q178S: GmSHC mutation Q178S selected by site-saturation mutagenesis (protein, Gluconobacter morbifer, GmSHC mutation Q178S selected by site-saturation mutagenesis) MSPADISTKSSSFQRLDNMLPEAVSSACDWLIDQQKPDGHWVGPVESNACMEAQWCLALWFLGQEDHPLRPRLAQALLEMQREDGSWGIYVGADHGDINTTVEAYAALRSMGYAADMPIMAKSAAWIQQKGGLRNVRVFTRYWLALIGEWPWDKTPNLPPEIIWLPDNFIFSIYNFASWARATMMPLTILSARRPSRPLLPENRLDGLFPEGRENFDYELPVKGEEDLWGRFFRAADKGLHSLQSFPVRRFVPREAAIRHVIEWIIRHQDADGGWGGIQPPWIYGLMALSVEGYPLHHPVLAKAMDALNDPGWRRDKGDASWIQATNSPVWDTMLAVLALHDAGAEDRYSPQMDKAIGWLLDRQVRVKGDWSIKLPDTEPGGWAFEYANDKYPDTDDTAVALIALAGCRHRPEWRERDIEGAISRGVNWLLAMQSSSGGWGAFDKDNNRSILTKIPFCDFGEALDPPSVDVTAHVLEAFGLLGISRNHPSVQKALAYIRSEQERNGAWFGRWGVNYVYGTGAVLPALAAIGEDMTQPYIVRACDWLMSVQQENGGWGESCASYMDINAVGHGVATASQTAWALIGLLAAKRPKDREAIARGCQFLIERQEDGSWTEEEYTGTGFPGYGVGQAIKLDDPSLPDRLLQGAELSRAFMLRYDLYRQYFPVMALSRARRMMKEDASAAA | improving activity
